Source: paper PMC6306009, “Combined use of cutinase and high-resolution mass-spectrometry to query the molecular architecture of cutin” (Plant Methods, 2018)

Tests used:
F. solani cutinase = target: T1, F. solani cutinase (Fusarium vanettenii, UniProt P00590); assay: p-nitrophenol release, absorbance at […] nm; format: biochemical; settings: 20 mM Tris-HCl pH 8, 10 mM NaCl, 10% acetonitrile (standard assay); temperature not given
T1 construct: gene CUT1; codon-optimised ORF, His-tagged, pET30f, E. coli BL21(DE3), sarkosyl extraction, Ni-NTA purified; 24-30 kDa on SDS-PAGE

[1] = test system: CCCC(=O)Oc1ccc([N+](=O)[O-])cc1; assay: purified protein; settings: 20 mM Tris-HCl pH 8, 10 mM NaCl, 10% acetonitrile (standard assay), temperature not given

T1 sequence (P00590 32-230): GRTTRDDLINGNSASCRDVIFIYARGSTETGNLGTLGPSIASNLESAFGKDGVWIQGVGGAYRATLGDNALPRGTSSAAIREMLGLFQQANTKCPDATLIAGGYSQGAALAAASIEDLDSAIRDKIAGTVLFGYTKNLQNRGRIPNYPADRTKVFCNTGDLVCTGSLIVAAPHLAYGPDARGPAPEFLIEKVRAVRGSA

Compound	Km (F. solani cutinase) [mM]	Km [1] [mM]	kcat [1] [s⁻¹]
CCCC(=O)Oc1ccc([N+](=O)[O-])cc1 [p-nitrophenyl butyrate]	1.26 ± 0.06		
A. brassicicola cutinase (Alternaria brassicicola)		0.87 ± 0.05	12 ± 0.80
